Biological target: Momordica charantia 7S globulin (Momordica charantia)
Assay: SEC; HiLoad 16/60 Superdex 200 pg, 50 mM Tris pH 7.4 with 150 mM NaCl, 0.5 ml/min; peak at ~69.2 ml, mass estimated from a calibration with high molecular weight standards

Substance: Momordica charantia 7S globulin (natural protein)
- stoichiometry N: 3

Source: PMC6981215
